Results as given in the DeepSol protein solubility set.

Assay: soluble on expression in E. coli; label from the status in PepcDB or PDB records

Soluble on expression in E. coli, not soluble:
MGSDKIHHHHHHMTNHQHPQTTTQWIDLIANSELPAITSTARMLDKFSNDDKSSLPKLSEAILHDQGLSSCLLKVANNIQHISINKVTTVSRASVVLGIQSVKNICLTAKLVSSLLASKSLDINVYEQLTQLMANSFYAGMLAKMMVPNYSEEIQEEVYLAAMLYRIGESAFWSAGGDVAKKLANYEAKSPQDFNQYCRKEMGTNFSELSKGLAGTWNLSDLLIKALDQPTTRTDEVKVIYFADKLSAIIAKPEGCEEDYHKLLKEIAYIVGISVRQLTVRIEHTREQAEKLLSSYGAEILTERINSLPTAEDFKSLGGDFDTREVVSKDKALLNGFMKLTKLIQNSKDFNEYLQLTLESLALTFAFDRSSFLMLVDDRARVKSRLVVNKNAQDDASKINIDIKHSDNVIARVISTDTAALINDHQEIRWRDLVTEEISEVIVEGAIAFVPVKIGGKAIGVICLQLLSPDQKIETQDFQQICAFIDHLNMCLTMIKYS, MGSDKIHHHHHHMTNIPFIYQYEEKENERAAAGYGTFGYLITRIEETLYDQYGVFYELYASDDPNTEYWELLVEDVRSGSLEPEHVAYIFEKLEKKTFAYDEDEKEPDYTVHKSIRNSVYAYPEKGVAFARIPYFQDGSIMSFDCLFAVNDEKMRAFLEGVRPRLWEKSKRKVTVFTDGDGGTSREQEAIVREVQRSQVIMNPLLKKEIYRSIDQFFHSDKSFYQTYDIPYKRGILLYGPPGNGKTTLVKSIAGSIDAPVAYWQITEFTSSETIEEVFQAARRLAPAVLVIEDIDSMPEDVRSFFLNTLDGATSKEGLFLIGTTNYPEEIDPGLMNRAGRFDRAYEIGLPDEELRLEYMKMRGFGIFLSEGEIKNAAKLTEGFSFAQLGELYVSSALQWHQEGNHHIETMVKDMTGEQRKSQRGSWMERNKVGFH, MGSDKIHHHHHHMTPTMSNIATLDDVRYQEHILQGVSRTFALTIPQLPPALREVVGNAYLLCRIVDTVEDDSALTLEQTRELAEMFIEVVSGTVEAETFARALYPLLSEHTIPAEHDLIKHTPSVIRMTHSFNPVQRQALERCIRIMGQGMAAYQESESLSGLENLAEMDRYCYHVAGVVGEMLTELFCDYSPEINQHKPALMQLSVSFGQGLQMTNILKDIWEDRKRGACWLPRDIFLQEGFDLNDLQPGCPERGFHAGLGTLIGIAKTHLQNALAYTCLIPSHEAGVRRFCLWAIGMAVLTLNKINHKRDFITGREVKISRRSVRATVLITSLLASQDWALKKIFAISSRNLPEVQIARS, MGSDKIHHHHHHMTQELTFSIKSLRFDEDYRPAANTRNTTNFANLARGQRRQENLRNTLAMINNRFNDLAHWDNPKRDRYAVELDIISVEMKIGERDTGDAFPLIEILQPSILDQTTGARIDGIAGNNFSSYVRDYDFSVLLPAHNQDTSSFSLPEGFGSLHGTLFKQFVNSDTYTARFAKPPVICISVSSSKVYHRTGNRHPILGVEYRQDAFSLTDQYFEKMGLQVRYFMPPNSVAPLAFYFLGDLLNDYTNLELIGTISTMETFQKIYRPEIYNANSAAGTIYQPSLKHQDYSATQIVYDRQERSQLAVTQGKFTQEHFIKPYGDILEQWASSHAFSSTPTQDIAHHE, MGSDKIHHHHHHMTQPFIPEQEYKRTDLHKQYGGNAQSGISNCANYPYIFIFSGVTGKQHGYKDGWENPNVFEYTGEGQMGDMSFTRGNLALRDHIDNGKQVFLFQYQRSGIVKYICELEFYDTDYFPTHDSSKQLRVGIRFFLKRKGAILPSVKELNQSTDFLAAESIPFYGIDSIKETSRKGEVNLRVGQGAYRKSIIHHWQYKCAVTGFDKLNLLNASHIHPWKDATDKERLDVNNGILLSPTYDALFDKHLISFENDGKIILSDTIHFSAYQKIGVTGKEKIKELNSNSILYIEKHRHLLLKY, MGSDKIHHHHHHMTQPFKDAISICKTILRNGYDAYVVNMRLQSELMAEDKRMEIDLACECDFDEIARLFPNATRSDEEGVLAMLEEGGVAHRFYLTDTEESSYPDRTLMRITPHMVARLQALGKAHSSLTLPYGAAAPHDSDDFESFDKGIIRLRGLPDETLRRNYLLAVRAIRYAANLDMEIDPVTWIAIVRSAGRVLDYVPVSDIVAEWQMVEAETMWKFVRLLFDAQLLHGLLPEVAALARVRQSRNDSGDTETVLDHTIECMRHYPEEGFHHDWYGTLAMLFHDVGKLFTADFHDGQWTFYQHHRVGAKVTRRLLHRLHLPAQEVDLICHLVRHHMRFHFMLTDKGIRRFAALDEYPRLMEMARADIKARDGSYTYFNHNQKYLERAATPEQMLEPLLNGNEIMQHTGLHPGPQVGLIRDALLNAQVTGAVADVNDAVAFIKEYKRQYFS
